Entries after “also recorded” stand apart in the source; their conditions may differ. One block for each molecule: values may come before it.
Assays:
TGFβ-1 [1] = biological target: T1, TGFβ-1 (Homo sapiens, UniProt P01137); assay: Microtiter binding assay: [125I]-TGFβ-1 binding to decorin-coated wells and competition; design: contains a major band at 25 kd; This band represents the native TGFβ-1 dimer; purchased Calbiochem, La Jolla, Calif; settings: for inhibition of [125I]-TGFβ-1 binding to decorin-coated wells by core proteins: core proteins / chondroitinase ABC-treated, 4° C. overnight (FIG. 3B); for inhibition of [125I]-TGFβ-1 binding to decorin-coated wells: intact proteoglycans, 37° C. 4 hours (FIG. 3A); for binding of [125I]-TGFβ-1 to microtiter wells coated with the protein: protein coated on wells
Method: The binding of TGFβ-1 to decorin was also examined in a microtiter binding assay. To perform the assay, the wells of a 96-well microtiter plate were coated overnight with 2μg/ml of recombinant decorin in 0.1M sodium carbonate buffer, pH 9.5. The wells were washed with PBS containing 0.05% Tween (PBS/Tween) and samples containing 5×10^4 cpm of [^125 I]-TGFβ-1 and various concentrations of competitors in PBS/Tween were added to each well. The plates were then incubated at 37° C. for 4 hours (at 4° C. overnight in experiments with chondroitinase ABC-digested proteoglycans), washed with PBS/Tween and the bound radioactivity was solubilized with 1% SDS in 0.2M NaOH. Total binding without competitors was about 4% under the conditions used. Nonspecific binding, determined by adding 100-fold molar excess of unlabeled TGFβ-1 over the labeled TGFβ-1 to the incubation mixture, was about 13% of total binding. This assay was also used to study the ability of other decorin preparations and related proteins to compete with the interaction.
Decorin isolated from bovine skin and biglycan isolated from bovine articular cartilage (PGI and PGII, obtained from Dr. Lawrence Rosenberg, Monteflore Medical Center, N.Y.; and described in Rosenberg et al., J. Biol. Chem. 250:6304-6313, (1985), incorporated by reference herein), chicken cartilage proteoglycan (provided by Dr. Paul Goetinck, La Jolla Cancer Research Foundation, La Jolla, Calif., and described in Goetinck, P. F., in THE GLYCOCONJUGATES, Vol. III, Horwitz, M. I., Editor, pp. 197-217, Academic Press, NY). For the preparation of core proteins, proteoglycans were digested with chondroitinase ABC (Seikagaku, Tokyo, Japan) by incubating 500 μg of proteoglycan with 0.8 units of chondroitinase ABC in 250 μl of 0.1M Tris/Cl, pH 8.0, 30 mM sodium acetate, 2 mM PMSF, 10 mM N-ethylmalelmide, 10 mM EDTA, and 0.36 mM pepstatin for 1 hour at 37° C. Recombinant decorin and decorin isolated from bovine skin (PGII) inhibited the binding of [^125 I]-TGFβ-1, as expected (FIG. 3A). […] This notion was further supported by competition experiments with the mutated decorin core protein (not shown) and chondroitinase ABC-digested decorin and biglycan (FIG.3B). Each of these proteins was inhibitory, whereas cartilage proteoglycan core protein was not.
Target sequence in this assay (P01137 279-390 limits assumed, species assumed): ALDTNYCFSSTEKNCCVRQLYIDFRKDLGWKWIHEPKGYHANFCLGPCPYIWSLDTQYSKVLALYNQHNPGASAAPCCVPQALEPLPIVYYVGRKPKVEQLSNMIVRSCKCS

TGFβ-1 [2] = biological target: T1, TGFβ-1; assay: affinity chromatography of 125I-TGFβ1 on control gelatin-Sepharose
TGF-β [3] = biological target: T2, TGF-β (Homo sapiens, UniProt P01137); assay: Binding of 125I-TGF-β to L-M(tk-) cells; settings: various concentrations of peptide (FIG. 12)
Method: About 2.5×10^4 HepG2 cells or L-M(tk-) cells were incubated with 250 pM[^125 I]TGF-β in the presence of recombinant human decorin (DC-12), PT-71 (MBP), decorin fragments (PT-72, -73, -84, -85, -86 and -87) or anti-TGF-β antibodies for 2 hours at room temperature. Cells were washed with washing buffer (128 mM NaCl, 5 mM KCl, 5 mM […], 1.2 mM CaCl2, 50 mM HEPES, pH 7.5) four times before determination of bound CPM.
The activity of the peptides was evaluated using the L-M(tk-) TGFβ1 binding inhibition assay described in Example VII, except various concentrations of peptide were incubated with the cells and TGFβ1 instead of decorin and recombinant decorin fragments. The negative control was a synthetic peptide corresponding to the first 15 amino acids of decorin, which has the sequence […](SEQ ID NO. 21).

TGF-β [4] = biological target: T2, TGF-β; assay: Binding of 125I-TGF-β to immobilized decorin with competitors; settings: 400 pM 125I-TGF-β pre-incubated with competitor; overnight 0° C.
Method: Immulon wells were coated with 0.5 μg/ml recombinant decorin at 50 μl/well. The wells were placed in a 37° C. incubator overnight and thereafter washed 3 times with 200 μl PBS (0.15M NaCl ) per well to remove unbound decorin. TGF-β labeled with ^125 I (400 pM, New England Nuclear, Bolton-Hunter Labeled) was pre-incubated with or without competitors in 200 μl PBS/0.05% Tween-20 for 1 hour and 45 minutes at room temperature. Competitors included recombinant human decorin preparations (DC-13 and DC-18v), decorin fragments, and MBP as a negative control.
Fifty μl/well of the pre-incubated ^125 I-TGF-β mixture or control were added and incubated overnight at 0° C. Following the incubation, 50 μl of the free TGF-β supernatants were transferred to labeled tubes. The plate was washed 3 times with 0.05% Tween-20 in PBS (200 μl/well). The wells were then transferred into tubes for counting in a gamma counter.
Further binding studies were conducted with soluble N-terminal decorin peptide fragments synthesized and tested for their ability to inhibit TGF-β1 binding to immobilized decorin as described above.

T2 sequence (P01137 279-390 limits assumed): as the sequence (P01137 279-390 limits assumed, species assumed) above

Molecule: PFRCQCHLRVVQ [nP25 -Q36, 20]
- inhibition of binding of TGFβ1 to L-M(tk-) cells by synthetic peptides (TGF-β [3]): demonstrated inhibitory activity, albeit to a lesser extent

Molecule: PFRSQSHLRVVQ [P25 -Q36, 18]
- inhibition of binding of TGFβ1 to L-M(tk-) cells by synthetic peptides (TGF-β [3]): inhibited

B1: DC-13: preparation of recombinant human decorin (protein)
chain: DEASGIGPEVPDDRDFEPSLGPVCPFRCQCHLRVVQCSDLGLDKVPKDLPPDTTLLDLQNNKITEIKDGDFKNLKNLHALILVNNKISKVSPGAFTPLVKLERLYLSKNQLKELPEKMPKTLQELRAHENEITKVRKVTFNGLNQMIVIELGTNPLKSSGIENGAFQGMKKLSYIRIADTNITSIPQGLPPSLTELHLDGNKISRVDAASLKGLNNLAKLGLSFNSISAVDNGSLANTPHLRELHLDNNKLTRVPGGLAEHKYIQVVYLHNNNISVVGSSDFCPPGHNTKKASYSGVSLFSNPVQYWEIQPSTFRCVYVRSAIQLGNYK
modifications: single glycosaminoglycan chain of a chondroitin sulfate/dermatan sulfate type on serine-4
notes: preparation of recombinant human decorin
- inhibition of 125I-TGF-β binding to immobilized decorin (TGF-β [4]): inhibited

B3: chondroitinase ABC-digested decorin: decorin core protein prepared by chondroitinase ABC digestion (protein)
chain: DEATGIGPEVPDDRDFEPSLGPVCPFRCQCHLRVVQCSDLGLDKVPKDLPPDTTLLDLQNNKITEIKDGDFKNLKNLHALILVNNKISKVSPGAFTPLVKLERLYLSKNQLKELPEKMPKTLQELRAHENEITKVRKVTFNGLNQMIVIELGTNPLKSSGIENGAFQGMKKLSYIRIADTNITSIPQGLPPSLTELHLDGNKISRVDAASLKGLNNLAKLGLSFNSISAVDNGSLANTPHLRELHLDNNKLTRVPGGLAEHKYIQVVYLHNNNISVVGSSDFCPPGHNTKKASYSGVSLFSNPVQYWEIQPSTFRCVYVRSAIQLGNYK
- inhibition of [125I]-TGFβ-1 binding to decorin-coated wells by core proteins (TGFβ-1 [1]): inhibitory; also recorded: somewhat more active than the intact proteoglycans

B4: DC-18V: preparation of recombinant human decorin (protein)
chain: DEASGIGPEVPDDRDFEPSLGPVCPFRCQCHLRVVQCSDLGLDKVPKDLPPDTTLLDLQNNKITEIKDGDFKNLKNLHALILVNNKISKVSPGAFTPLVKLERLYLSKNQLKELPEKMPKTLQELRAHENEITKVRKVTFNGLNQMIVIELGTNPLKSSGIENGAFQGMKKLSYIRIADTNITSIPQGLPPSLTELHLDGNKISRVDAASLKGLNNLAKLGLSFNSISAVDNGSLANTPHLRELHLDNNKLTRVPGGLAEHKYIQVVYLHNNNISVVGSSDFCPPGHNTKKASYSGVSLFSNPVQYWEIQPSTFRCVYVRSAIQLGNYK
modifications: single glycosaminoglycan chain of a chondroitin sulfate/dermatan sulfate type on serine-4
notes: as for B1
- inhibition of 125I-TGF-β binding to immobilized decorin (TGF-β [4]): inhibited

B5: Biglycan isolated from bovine articular cartilage: biglycan isolated from bovine articular cartilage (protein)
chain: DEEASGAETTSGIPDLDSLPPTYSAMCPFGCHCHLRVVQCSDLGLKAVPKEISPDTTLLDLQNNDISELRKDDFKGLQHLYALVLVNNKISKIHEKAFSPLRKLQKLYISKNHLVEIPPNLPSSLVELRIHDNRIRKVPKGVFSGLRNMNCIEMGGNPLENSGFEPGAFDGLKLNYLRISEAKLTGIPKDLPETLNELHLDHNKIQAIELEDLLRYSKLYRLGLGHNQIRMIENGSLSFLPTLRELHLDNNKLSRVPAGLPDLKLLQVVYLHTNNITKVGVNDFCPVGFGVKRAYYNGISLFNNPVPYWEVQPATFRCVTDRLAIQFGNYKK
modifications: intact proteoglycan (carries glycosaminoglycan)
- inhibition of [125I]-TGFβ-1 binding to decorin-coated wells (TGFβ-1 [1]): as effective an inhibitor as decorin
- binding of [125I]-TGFβ-1 to microtiter wells coated with the protein (TGFβ-1 [1]): bound

B6: chondroitinase ABC-digested biglycan: biglycan core protein prepared by chondroitinase ABC digestion (protein)
chain: DEEASGAETTSGIPDLDSLPPTYSAMCPFGCHCHLRVVQCSDLGLKAVPKEISPDTTLLDLQNNDISELRKDDFKGLQHLYALVLVNNKISKIHEKAFSPLRKLQKLYISKNHLVEIPPNLPSSLVELRIHDNRIRKVPKGVFSGLRNMNCIEMGGNPLENSGFEPGAFDGLKLNYLRISEAKLTGIPKDLPETLNELHLDHNKIQAIELEDLLRYSKLYRLGLGHNQIRMIENGSLSFLPTLRELHLDNNKLSRVPAGLPDLKLLQVVYLHTNNITKVGVNDFCPVGFGVKRAYYNGISLFNNPVPYWEVQPATFRCVTDRLAIQFGNYKK
modifications: glycosaminoglycan removed with chondroitinase ABC
notes: biglycan core protein prepared by chondroitinase ABC digestion
- inhibition of [125I]-TGFβ-1 binding to decorin-coated wells by core proteins (TGFβ-1 [1]): inhibitory; also recorded: somewhat more active than the intact proteoglycans
- binding of [125I]-TGFβ-1 to microtiter wells coated with the protein (TGFβ-1 [1]): bound

More lines, now with the values ahead:

- inhibition of [125I]-TGFβ-1 binding to decorin-coated wells by core proteins (TGFβ-1 [1]): did not shown any inhibition
Molecule: Bovine serum albumin treated with chondroitinase ABC: BSA treated with chondroitinase ABC, control [reference compound]

- percent of the radioactivity in the urea-eluted fraction (TGFβ-1 [2]): 2%
Molecule: gelatin

- inhibition of [125I]-TGFβ-1 binding to decorin-coated wells (TGFβ-1 [1]): did not shown any inhibition
Molecule: Bovine serum albumin: bovine serum albumin control [reference compound]

- inhibition of [125I]-TGFβ-1 binding to decorin-coated wells by core proteins (TGFβ-1 [1]): inhibitory
B2: mutated decorin core protein: decorin core protein with serine-4 mutated, lacking glycosaminoglycan (protein)
chain: DEATGIGPEVPDDRDFEPSLGPVCPFRCQCHLRVVQCSDLGLDKVPKDLPPDTTLLDLQNNKITEIKDGDFKNLKNLHALILVNNKISKVSPGAFTPLVKLERLYLSKNQLKELPEKMPKTLQELRAHENEITKVRKVTFNGLNQMIVIELGTNPLKSSGIENGAFQGMKKLSYIRIADTNITSIPQGLPPSLTELHLDGNKISRVDAASLKGLNNLAKLGLSFNSISAVDNGSLANTPHLRELHLDNNKLTRVPGGLAEHKYIQVVYLHNNNISVVGSSDFCPPGHNTKKASYSGVSLFSNPVQYWEIQPSTFRCVYVRSAIQLGNYK

- inhibition of [125I]-TGFβ-1 binding to decorin-coated wells (TGFβ-1 [1]): inhibited
B7: decorin isolated from bovine skin (PGII): decorin isolated from bovine skin (protein, UniProt P21793 31-360, looked up)
Decorin: DEASGIGPEEHFPEVPEIEPMGPVCPFRCQCHLRVVQCSDLGLEKVPKDLPPDTALLDLQNNKITEIKDGDFKNLKNLHTLILINNKISKISPGAFAPLVKLERLYLSKNQLKELPEKMPKTLQELRVHENEITKVRKSVFNGLNQMIVVELGTNPLKSSGIENGAFQGMKKLSYIRIADTNITTIPQGLPPSLTELHLDGNKITKVDAASLKGLNNLAKLGLSFNSISAVDNGSLANTPHLRELHLNNNKLVKVPGGLADHKYIQVVYLHNNNISAIGSNDFCPPGYNTKKASYSGVSLFSNPVQYWEIQPSTFRCVYVRAAVQLGNYK

From patent US5705609A, “Decorin fragments inhibiting cell regulatory factors” (La Jolla Cancer Research Foundation, priority 1995, dated 1998)
